This is an account of results in patent US20140087995A1 (published 2014).

Numbered stars: 1 amine (or outer) side, 2 acyl side, 3 side chain; on linkers, the order of the positions; unused ones are H or OH. Bridge positions count the residues as written; N and C are the ends. Side chains are listed from the residue outwards. Ends that are not written are not given here. * marks the point of attachment. C20 diacid = O=C(O)CCCCCCCCCCCCCCCCCCC(=O)*; γGlu = O=C(O)[C@H](CCC(=O)[*:2])N[*:1]; AEEA = NCCOCCOCC(=O)O

In test [1] the target is T1, human calcitonin receptor (human, UniProt P30988 25-474).
T1 construct: whole, on cells; Assay used cell membranes, not intact cells; also called hCTR; hCT
T1 sequence (looked up): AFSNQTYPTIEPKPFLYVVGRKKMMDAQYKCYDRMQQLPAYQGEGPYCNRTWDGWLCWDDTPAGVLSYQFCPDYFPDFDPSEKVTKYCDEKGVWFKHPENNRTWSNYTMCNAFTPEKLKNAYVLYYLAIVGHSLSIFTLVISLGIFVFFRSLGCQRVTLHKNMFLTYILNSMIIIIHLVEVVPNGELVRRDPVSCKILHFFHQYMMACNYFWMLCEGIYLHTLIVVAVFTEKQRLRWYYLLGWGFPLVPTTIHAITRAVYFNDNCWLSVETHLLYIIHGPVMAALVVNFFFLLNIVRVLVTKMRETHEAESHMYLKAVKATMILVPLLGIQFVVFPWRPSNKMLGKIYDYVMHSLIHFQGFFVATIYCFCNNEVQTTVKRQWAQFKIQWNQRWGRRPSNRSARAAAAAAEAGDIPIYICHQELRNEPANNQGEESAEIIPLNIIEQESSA
Nature of the test: ratio IC50 hCTR / IC50 hAmylin-R (reference: human amylin receptor), SPA competition assays. Summed up: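 Membranes (35 ng/μL final) + SPA beads, 50 mM Hepes pH 7.4 buffer with 1 mM CaCl2, 5 mM MgCl₂, 0.1% OA, 0.02% Tween20; 120 min, 25° C, shaking; centrifuged, counted; IC₅₀ by one-site binding competition.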

For test [2], the target named is T1, human calcitonin receptor. Nature of the test: SPA competition with 125I-calcitonin on membranes of BHK cells with human calcitonin receptor (Assay VII). In a few lines:
(§1)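 BHK hCTR membranes 35 ng/μL + SPA beads 0.05 mg/well; buffer 50 mM Hepes pH 7.4, 1 mM CaCl2, 5 mM MgCl₂, 0.1% OA, 0.02% Tween20. 120 min, 25° C., shaking. Scintillation count; IC50 by one-site binding competition.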

Test [3] concerns the target T2, human amylin receptor (amylin 3(a) receptor: human calcitonin receptor with RAMP-3) (human, UniProt P30988 25-474; O60896 24-148).
T2 construct: whole, on cells; Assay used cell membranes of the Amylin 3(a)/CRE-luc BHK cells, not intact cells; also called hAmylin-R; hAmylinR
T2 sequence (looked up) 1: T1 sequence (looked up)
T2 sequence (looked up) 2: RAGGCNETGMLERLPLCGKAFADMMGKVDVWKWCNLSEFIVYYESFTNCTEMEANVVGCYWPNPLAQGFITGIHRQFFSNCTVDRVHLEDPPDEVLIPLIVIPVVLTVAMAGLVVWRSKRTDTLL
Briefly: SPA competition with 125I-rat amylin on membranes of BHK cells with human calcitonin receptor and RAMP-3 (Assay V). Summed up:
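SPA beads + BHK amylin 3(a)/CRE-luc membranes, 35 ng/μL final; buffer 50 mM Hepes pH 7.4, 1 mM CaCl2, 5 mM MgCl₂, 0.1% OA, 0.02% Tween20. 120 min, 25° C, shaken; scintillation count. IC₅₀ by one-site binding competition fit, taken as receptor affinity.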

Test [4] concerns the target T3, human calcitonin receptor (human, UniProt P30988 25-474).
T3 construct: whole, on cells; Assay used cell membranes of the transfected BHK cells; also called hCTR; hCT
T3 sequence (looked up): T1 sequence (looked up)
Briefly: SPA radioligand competition (125I-calcitonin), membranes of BHK cells with human calcitonin receptor. In a few lines: as §1
(Loss of bound radioactivity is the signal in a displacement assay; it reports binding, not function.)

B1: N{-1}-[(4S)-4-carboxy-4-(19-carboxynonadecanoylamino)butanoyl]-Gly[Arg1,His14,Arg17,Pro21,Pro27]-h-amylin (peptide)
peptide: {C20 diacid-γGlu}-GRCNTATCATQRLAHFLRHSSPNFGAIPSSTNVGSNTY-NH2
modifications: disulfide 3-8
SMILES: CC[C@H](C)[C@H](NC(=O)[C@H](C)NC(=O)CNC(=O)[C@H](Cc1ccccc1)NC(=O)[C@H](CC(N)=O)NC(=O)[C@@H]1CCCN1C(=O)[C@H](CO)NC(=O)[C@H](CO)NC(=O)[C@H](Cc1c[nH]cn1)NC(=O)[C@H](CCCNC(=N)N)NC(=O)[C@H](CC(C)C)NC(=O)[C@H](Cc1ccccc1)NC(=O)[C@H](Cc1c[nH]cn1)NC(=O)[C@H](C)NC(=O)[C@H](CC(C)C)NC(=O)[C@H](CCCNC(=N)N)NC(=O)[C@H](CCC(N)=O)NC(=O)[C@@H](NC(=O)[C@H](C)NC(=O)[C@@H]1CSSC[C@H](NC(=O)[C@H](CCCNC(=N)N)NC(=O)CNC(=O)CC[C@H](NC(=O)CCCCCCCCCCCCCCCCCCC(=O)O)C(=O)O)C(=O)N[C@@H](CC(N)=O)C(=O)N[C@@H]([C@@H](C)O)C(=O)N[C@@H](C)C(=O)N[C@@H]([C@@H](C)O)C(=O)N1)[C@@H](C)O)C(=O)N1CCC[C@H]1C(=O)N[C@@H](CO)C(=O)N[C@@H](CO)C(=O)N[C@H](C(=O)N[C@@H](CC(N)=O)C(=O)N[C@H](C(=O)NCC(=O)N[C@@H](CO)C(=O)N[C@@H](CC(N)=O)C(=O)N[C@H](C(=O)N[C@@H](Cc1ccc(O)cc1)C(N)=O)[C@@H](C)O)C(C)C)[C@@H](C)O
notes: also called compound 99
The IC50 is the point on the concentration scale where inhibition reaches its midpoint. On to B1, for which the “Ratio hCT/hAmylin binding” value in test [1] was 100. For the same molecule, the IC50 in test [2] came to 35 nM; in test [3], 0.348 nM.

B2: N^ε1-[2-[2-[2-[[(4S)-4-carboxy-4-(19-carboxynonadecanoylamino)butanoyl]amino]ethoxy]ethoxy]acetyl]-[Arg17,Pro21,Pro27,Pro28,Pro31]-h-amylin (peptide)
peptide: K([AEEA-γGlu-C20 diacid])CNTATCATQRLANFLRHSSPNFGAIPPSTPVGSNTY-NH2
modifications: disulfide 2-7
notes: Synthetic analogue; also called compound 53
B2: the 50% inhibitory concentration (IC50) in test [4] came to 5.38 nM.

B3: N^ε1-[2-[2-[2-[[(4S)-4-carboxy-4-(19-carboxynonadecanoylamino)butanoyl]amino]ethoxy]ethoxy]acetyl]-[Arg17,Pro21,Pro27,Pro28,Pro34]-h-amylin (peptide)
peptide: K([AEEA-γGlu-C20 diacid])CNTATCATQRLANFLRHSSPNFGAIPPSTNVGPNTY-NH2
modifications: disulfide 2-7; N-terminus assumed
SMILES: CC[C@H](C)[C@H](NC(=O)[C@H](C)NC(=O)CNC(=O)[C@H](Cc1ccccc1)NC(=O)[C@H](CC(N)=O)NC(=O)[C@@H]1CCCN1C(=O)[C@H](CO)NC(=O)[C@H](CO)NC(=O)[C@H](Cc1c[nH]cn1)NC(=O)[C@H](CCCNC(=N)N)NC(=O)[C@H](CC(C)C)NC(=O)[C@H](Cc1ccccc1)NC(=O)[C@H](CC(N)=O)NC(=O)[C@H](C)NC(=O)[C@H](CC(C)C)NC(=O)[C@H](CCCNC(=N)N)NC(=O)[C@H](CCC(N)=O)NC(=O)[C@@H](NC(=O)[C@H](C)NC(=O)[C@@H]1CSSC[C@H](NC(=O)[C@@H](N)CCCCNC(=O)COCCOCCNC(=O)CC[C@H](NC(=O)CCCCCCCCCCCCCCCCCCC(=O)O)C(=O)O)C(=O)N[C@@H](CC(N)=O)C(=O)N[C@@H]([C@@H](C)O)C(=O)N[C@@H](C)C(=O)N[C@@H]([C@@H](C)O)C(=O)N1)[C@@H](C)O)C(=O)N1CCC[C@H]1C(=O)N1CCC[C@H]1C(=O)N[C@@H](CO)C(=O)N[C@H](C(=O)N[C@@H](CC(N)=O)C(=O)N[C@H](C(=O)NCC(=O)N1CCC[C@H]1C(=O)N[C@@H](CC(N)=O)C(=O)N[C@H](C(=O)N[C@@H](Cc1ccc(O)cc1)C(N)=O)[C@@H](C)O)C(C)C)[C@@H](C)O
notes: Synthetic analogue; also called compound 55
For B3, the IC50 in test [4] was 2.17 nM.

B4: N^ε1-[2-[2-[2-[[(4S)-4-carboxy-4-(19-carboxynonadecanoylamino)butanoyl]amino]ethoxy]ethoxy]acetyl]-[Arg17,Pro21,Pro27,Pro31,His35]-h-amylin (peptide)
peptide: K([AEEA-γGlu-C20 diacid])CNTATCATQRLANFLRHSSPNFGAIPSSTPVGSHTY-NH2
modifications: disulfide 2-7; N-terminus assumed
SMILES: CC[C@H](C)[C@H](NC(=O)[C@H](C)NC(=O)CNC(=O)[C@H](Cc1ccccc1)NC(=O)[C@H](CC(N)=O)NC(=O)[C@@H]1CCCN1C(=O)[C@H](CO)NC(=O)[C@H](CO)NC(=O)[C@H](Cc1c[nH]cn1)NC(=O)[C@H](CCCNC(=N)N)NC(=O)[C@H](CC(C)C)NC(=O)[C@H](Cc1ccccc1)NC(=O)[C@H](CC(N)=O)NC(=O)[C@H](C)NC(=O)[C@H](CC(C)C)NC(=O)[C@H](CCCNC(=N)N)NC(=O)[C@H](CCC(N)=O)NC(=O)[C@@H](NC(=O)[C@H](C)NC(=O)[C@@H]1CSSC[C@H](NC(=O)[C@@H](N)CCCCNC(=O)COCCOCCNC(=O)CC[C@H](NC(=O)CCCCCCCCCCCCCCCCCCC(=O)O)C(=O)O)C(=O)N[C@@H](CC(N)=O)C(=O)N[C@@H]([C@@H](C)O)C(=O)N[C@@H](C)C(=O)N[C@@H]([C@@H](C)O)C(=O)N1)[C@@H](C)O)C(=O)N1CCC[C@H]1C(=O)N[C@@H](CO)C(=O)N[C@@H](CO)C(=O)N[C@H](C(=O)N1CCC[C@H]1C(=O)N[C@H](C(=O)NCC(=O)N[C@@H](CO)C(=O)N[C@@H](Cc1c[nH]cn1)C(=O)N[C@H](C(=O)N[C@@H](Cc1ccc(O)cc1)C(N)=O)[C@@H](C)O)C(C)C)[C@@H](C)O
notes: Synthetic analogue; also called compound 57
As to B4, the concentration for half-maximal inhibition (IC50) in test [4] was determined as 15.3 nM.

B5: N^ε1-[2-[2-[2-[[(4S)-4-carboxy-4-(19-carboxynonadecanoylamino)butanoyl]amino]ethoxy]ethoxy]acetyl]-[Arg17,Pro21,Pro27,Pro29,Pro34]-h-amylin (peptide)
peptide: K([AEEA-γGlu-C20 diacid])CNTATCATQRLANFLRHSSPNFGAIPSPTNVGPNTY-NH2
modifications: disulfide 2-7; N-terminus assumed
SMILES: CC[C@H](C)[C@H](NC(=O)[C@H](C)NC(=O)CNC(=O)[C@H](Cc1ccccc1)NC(=O)[C@H](CC(N)=O)NC(=O)[C@@H]1CCCN1C(=O)[C@H](CO)NC(=O)[C@H](CO)NC(=O)[C@H](Cc1c[nH]cn1)NC(=O)[C@H](CCCNC(=N)N)NC(=O)[C@H](CC(C)C)NC(=O)[C@H](Cc1ccccc1)NC(=O)[C@H](CC(N)=O)NC(=O)[C@H](C)NC(=O)[C@H](CC(C)C)NC(=O)[C@H](CCCNC(=N)N)NC(=O)[C@H](CCC(N)=O)NC(=O)[C@@H](NC(=O)[C@H](C)NC(=O)[C@@H]1CSSC[C@H](NC(=O)[C@@H](N)CCCCNC(=O)COCCOCCNC(=O)CC[C@H](NC(=O)CCCCCCCCCCCCCCCCCCC(=O)O)C(=O)O)C(=O)N[C@@H](CC(N)=O)C(=O)N[C@@H]([C@@H](C)O)C(=O)N[C@@H](C)C(=O)N[C@@H]([C@@H](C)O)C(=O)N1)[C@@H](C)O)C(=O)N1CCC[C@H]1C(=O)N[C@@H](CO)C(=O)N1CCC[C@H]1C(=O)N[C@H](C(=O)N[C@@H](CC(N)=O)C(=O)N[C@H](C(=O)NCC(=O)N1CCC[C@H]1C(=O)N[C@@H](CC(N)=O)C(=O)N[C@H](C(=O)N[C@@H](Cc1ccc(O)cc1)C(N)=O)[C@@H](C)O)C(C)C)[C@@H](C)O
notes: Synthetic analogue; also called compound 56
As for B5, the IC50 in test [4] amounted to 2.09 nM.

B6: N^ε1-[2-[2-[2-[[(4S)-4-carboxy-4-(19-carboxynonadecanoylamino)butanoyl]amino]ethoxy]ethoxy]acetyl]-[Arg17,Pro21,Pro27,Pro29,Pro31]-h-amylin (peptide)
peptide: K([AEEA-γGlu-C20 diacid])CNTATCATQRLANFLRHSSPNFGAIPSPTPVGSNTY-NH2
modifications: disulfide 2-7; N-terminus assumed
SMILES: CC[C@H](C)[C@H](NC(=O)[C@H](C)NC(=O)CNC(=O)[C@H](Cc1ccccc1)NC(=O)[C@H](CC(N)=O)NC(=O)[C@@H]1CCCN1C(=O)[C@H](CO)NC(=O)[C@H](CO)NC(=O)[C@H](Cc1c[nH]cn1)NC(=O)[C@H](CCCNC(=N)N)NC(=O)[C@H](CC(C)C)NC(=O)[C@H](Cc1ccccc1)NC(=O)[C@H](CC(N)=O)NC(=O)[C@H](C)NC(=O)[C@H](CC(C)C)NC(=O)[C@H](CCCNC(=N)N)NC(=O)[C@H](CCC(N)=O)NC(=O)[C@@H](NC(=O)[C@H](C)NC(=O)[C@@H]1CSSC[C@H](NC(=O)[C@@H](N)CCCCNC(=O)COCCOCCNC(=O)CC[C@H](NC(=O)CCCCCCCCCCCCCCCCCCC(=O)O)C(=O)O)C(=O)N[C@@H](CC(N)=O)C(=O)N[C@@H]([C@@H](C)O)C(=O)N[C@@H](C)C(=O)N[C@@H]([C@@H](C)O)C(=O)N1)[C@@H](C)O)C(=O)N1CCC[C@H]1C(=O)N[C@@H](CO)C(=O)N1CCC[C@H]1C(=O)N[C@H](C(=O)N1CCC[C@H]1C(=O)N[C@H](C(=O)NCC(=O)N[C@@H](CO)C(=O)N[C@@H](CC(N)=O)C(=O)N[C@H](C(=O)N[C@@H](Cc1ccc(O)cc1)C(N)=O)[C@@H](C)O)C(C)C)[C@@H](C)O
notes: Synthetic analogue; also called compound 54
With B6, the IC50 in test [4] is 4.38 nM.
